“And” between values parts separate entries of the source, which are not always exact repeats. Identical values can stand only once. Like-named read-outs stand apart in the source and are kept apart here. Square brackets hold non-standard residues; d marks the D form. Ends that are not written are not given here. * marks the point of attachment. MCA = alpha-methylhydrocinnamic acid (2-methyl-3-phenylpropanoic acid); PLA = 3-phenyllactic acid (2-hydroxy-3-phenylpropanoic acid); PhLac = O=C(O)[C@@H](O)Cc1ccccc1; Carboxymethyl = O=C(O)C*

This note sets out measurements from US20120322725A1 (INDIANA UNIVERSITY RESEARCH AND TECHNOLOGY, published 2012).

In test [1] the target is T1, glucagon receptor (UniProt P47871 26-477, limits assumed).
T1 construct: whole, on cells; also called GR; Glucagon
Kind of test: receptor binding (named so for the same values in Table I), method not described.

The target of test [2] is T1, glucagon receptor. Kind of test: cell-based or functional assay.
The target of test [3] is T1, glucagon receptor. The test is described as follows: receptor binding, method not described.
Test [4] addresses T1, glucagon receptor. The test is described as follows: cell-based or functional assay. This is another data set of the same source.
Test [5] concerns the target T1, glucagon receptor. Kind of test: receptor binding, method not described. The source holds these as a separate data set.
Test [6] concerns the target T1, glucagon receptor. The test is described as follows: cell-based or functional assay. This is another data set of the same source.
The target in test [7] is T1, glucagon receptor. The test is described as follows: receptor binding, method not described. This is another data set of the same source.
Test [8] addresses T1, glucagon receptor. The test is described as follows: cell-based or functional assay. This is another data set of the same source.

T1 sequence (P47871 26-477 limits assumed): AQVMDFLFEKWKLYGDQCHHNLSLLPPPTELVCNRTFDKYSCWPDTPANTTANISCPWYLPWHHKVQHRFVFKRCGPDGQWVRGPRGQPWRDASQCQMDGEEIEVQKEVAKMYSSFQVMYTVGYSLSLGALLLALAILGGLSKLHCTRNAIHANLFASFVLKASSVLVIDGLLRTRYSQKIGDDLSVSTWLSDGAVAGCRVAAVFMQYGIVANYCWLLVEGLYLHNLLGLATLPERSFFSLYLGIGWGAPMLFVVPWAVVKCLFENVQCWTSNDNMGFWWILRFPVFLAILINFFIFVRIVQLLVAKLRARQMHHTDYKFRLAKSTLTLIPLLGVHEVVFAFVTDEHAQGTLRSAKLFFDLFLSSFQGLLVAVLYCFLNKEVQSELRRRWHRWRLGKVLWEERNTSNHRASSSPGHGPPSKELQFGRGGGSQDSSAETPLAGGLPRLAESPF

Usually IC50 stands for the concentration that gives 50% inhibition. The low end stands for greater potency, the high end for weaker potency. In test [1], LTFTSEYSKYLDSRRAQDFVQWLMNT-NH2 (also called peptide no) [[Leu^4, Glu^9]Glucagon(aa4-29)-NH2] registered an IC50 of 36.4 nM.
For the molecule C(PEG 5 kDa)FTSEYSKYLDSRRAQDFVQWLMNT-NH2 [[C5(5kDaPEG), E9]Glucagon(aa5-29)-NH2], the “IC50(nM) (cAMP, inhibit 0.2 mM Glucagon)” value in test [2] is 1610 nM. The molecule also gave an IC50 in test [3] of 634 nM.
As to SQGTTSDYSKYLDSRRAQDFVQWLMNT-NH2 (also called Cmpd) [[desHis^1, desPhe^6]Glucagon-NH2], in test [4], the “cAMP Induction EC50” value came to 1180 nM. For the same molecule, the IC50 in test [5] was 130 nM.
In the case of [MCA]TSEYSKYLDSRRAQDFVC(maleimido methoxyPEG 20 kDa)WLMNT-NH2 [[MCA6, E9, C24(20kDaPEG)]Glucagon(aa6-29)-NH2], the IC50 in test [3] was 208 nM.
Turning to [PhLac]TC(maleimido methoxyPEG 20 kDa)EYSKYLDSRRAQDFVQWLMNT-NH2 [[PLA6, C8(20kDaPEG), E9]Glucagon(aa6-29)-NH2], in test [2], the “IC50(nM) (cAMP, inhibit 0.2 mM Glucagon)” value was 236 nM and 92 nM. This molecule also yielded an IC50 in test [3] of 303 nM.
Take [PhLac]TSEYSKYLDSRRAQDFVC(maleimido methoxyPEG 20 kDa)WLMNT-NH2 [[PLA6, E9, C24(20kDaPEG)]Glucagon(aa6-29)-NH2]: the “IC50(nM) (cAMP, inhibit 0.2 mM Glucagon)” value in test [2] was 126 nM. The molecule also returned an IC50 in test [3] of 90 nM.
The corresponding values for [PhLac]TSEYC(maleimido methoxyPEG 20 kDa)KYLDSRRAQDFVQWLMNT-NH2 [[PLA6, E9, C11(20kDaPEG)]Glucagon(aa6-29)-NH2] are 664 nM and 776 nM.
With C(PEG 1.2 kDa)FTSEYSKYLDSRRAQDFVQWLMNT-NH2 [[C5(1.2kDaPEG), E9]Glucagon(aa5-29)-NH2], the “IC50(nM) (cAMP, inhibit 0.2 mM Glucagon)” value in test [2] came out at 2280 nM. This molecule displayed an IC50 in test [3] of 1080 nM.
With {PLA}-TC(PEG 1.2 kDa)EYSKYLDSRRAQDFVQWLMNT-NH2 [[PLA6, C8(1.2kDaPEG), E9]Glucagon(aa6-29)-NH2], the IC50 in test [3] stood at 220 nM.
As for {PLA}-TSEYSKYLDSRRAQDFVC(PEG 1.2 kDa)WLMNT-NH2 [[PLA6, E9,C24(1.2 kDaPEG)]Glucagon(aa6-29)-NH2], the “IC50(nM) (cAMP, inhibit 0.2 mM Glucagon)” value in test [2] was 18 nM. This molecule had a half-inhibitory concentration (IC50) in test [3] of 4.7 nM.
With {PLA}-TC(PEG 5 kDa)EYSKYLDSRRAQDFVQWLMNT-NH2 [[PLA6, C8(5kDaPEG), E9]Glucagon(aa6-29)-NH2], the “IC50(nM) (cAMP, inhibit 0.2 mM Glucagon)” value in test [2] worked out at 216 nM. The molecule also displayed an IC50 in test [3] of 948 nM.
Consider SQGTFTSEYSKYLDSRRAQDFVQFLLNT-NH2 [[desHis^1, Glu^9, Phe^25, Leu^27]Glucagon-NH2], for which the “cAMP Induction EC50” value in test [4] was found to be 81 nM. Further, the IC50 in test [5] is 12.6 nM.
With SQLTFTSEYSKYLDSRRAQDFVQWLMNT-NH2 (also called Cmpd) [[desHis^1, Leu^4, Glu^9]Glucagon-NH2], in test [4], the “cAMP Induction EC50” value stood at 318 nM and the “cAMP Inhibition IC50” value was determined as 102 nM. The molecule also had an IC50 in test [5] of 36.9 nM.
Turning to FTSDYSKYLDSRRAQDFVQWLMNT-NH2 (also called peptide no) [Glucagon(aa6-29)-NH2], the “cAMP IC50” value in test [6] was found to be 346 nM. Also, the “cAMP pA2” value in test [6] and in test [8] was 6.94 each time. Besides, the IC50 is 1670 nM in test [7] and 1890 nM in test [1]. For the same molecule, the “cAMP (I/A)50” value in test [8] came to 1730.

B1: [Lys^9]Glucagon(aa6-29)-NH2 (peptide)
peptide: FTSKYSKYLDSRRAQDFVQWLMNT-NH2
notes: also called [K^9]Glucagon(aa6-29)-NH2; peptide no
Take B1: in test [6], the “cAMP IC50” value amounted to 398 nM and the “cAMP pA2” value turned out to be 6.58. This molecule yielded an IC50 in test [7] of 3240 nM. Besides, the IC50 in test [1] is 5780 nM. In addition, in test [8], the “cAMP (I/A)50” value stood at 1990 and the “cAMP pA2” value was found to be 6.58.

B2: [(CSA-2)^9]Glucagon(aa6-29)-NH2 (peptide)
peptide: FTSCYSKYLDSRRAQDFVQWLMNT
HELM: PEPTIDE1{F.T.S.[O=C(O)CCSC[C@H](N[*:1])C(=O)[*:2]].Y.S.K.Y.L.D.S.R.R.A.Q.D.F.V.Q.W.L.M.N.T.[am]}$$$$V2.0; N-terminus assumed
SMILES: CSCC[C@H](NC(=O)[C@H](CC(C)C)NC(=O)[C@H](Cc1c[nH]c2ccccc12)NC(=O)[C@H](CCC(N)=O)NC(=O)[C@@H](NC(=O)[C@H](Cc1ccccc1)NC(=O)[C@H](CC(=O)O)NC(=O)[C@H](CCC(N)=O)NC(=O)[C@H](C)NC(=O)[C@H](CCCNC(=N)N)NC(=O)[C@H](CCCNC(=N)N)NC(=O)[C@H](CO)NC(=O)[C@H](CC(=O)O)NC(=O)[C@H](CC(C)C)NC(=O)[C@H](Cc1ccc(O)cc1)NC(=O)[C@H](CCCCN)NC(=O)[C@H](CO)NC(=O)[C@H](Cc1ccc(O)cc1)NC(=O)[C@H](CSCCC(=O)O)NC(=O)[C@H](CO)NC(=O)[C@@H](NC(=O)[C@@H](N)Cc1ccccc1)[C@@H](C)O)C(C)C)C(=O)N[C@@H](CC(N)=O)C(=O)N[C@H](C(N)=O)[C@@H](C)O
notes: also called [C^9(SCH2CH2COOH)]Glucagon(aa6-29)-NH2; peptide no
For B2, in test [6], the “cAMP IC50” value is 116 nM and the “cAMP pA2” value stood at 6.64. This molecule also showed an IC50 in test [7] of 146 nM. This molecule registered an IC50 in test [1] of 146 nM. Also, in test [8], the “cAMP (I/A)50” value turned out to be 580 and the “cAMP pA2” value was 6.64.

B3: [(CSA-1)^9]Glucagon(aa6-29)-NH2 (peptide)
peptide: FTSC(Carboxymethyl)YSKYLDSRRAQDFVQWLMNT-NH2
modifications: N-terminus assumed
SMILES: CSCC[C@H](NC(=O)[C@H](CC(C)C)NC(=O)[C@H](Cc1c[nH]c2ccccc12)NC(=O)[C@H](CCC(N)=O)NC(=O)[C@@H](NC(=O)[C@H](Cc1ccccc1)NC(=O)[C@H](CC(=O)O)NC(=O)[C@H](CCC(N)=O)NC(=O)[C@H](C)NC(=O)[C@H](CCCNC(=N)N)NC(=O)[C@H](CCCNC(=N)N)NC(=O)[C@H](CO)NC(=O)[C@H](CC(=O)O)NC(=O)[C@H](CC(C)C)NC(=O)[C@H](Cc1ccc(O)cc1)NC(=O)[C@H](CCCCN)NC(=O)[C@H](CO)NC(=O)[C@H](Cc1ccc(O)cc1)NC(=O)[C@H](CSCC(=O)O)NC(=O)[C@H](CO)NC(=O)[C@@H](NC(=O)[C@@H](N)Cc1ccccc1)[C@@H](C)O)C(C)C)C(=O)N[C@@H](CC(N)=O)C(=O)N[C@H](C(N)=O)[C@@H](C)O
notes: also called [C^9(SCH2COOH)]Glucagon(aa6-29)-NH2; peptide no
For the molecule B3, in test [6], the “cAMP IC50” value came to 101 nM and the “cAMP pA2” value stood at 6.68. The molecule also gave an IC50 in test [7] of 107 nM. Moreover, in test [1], the IC50 came to 107 nM. Moreover, in test [8], the “cAMP (I/A)50” value came to 506 and the “cAMP pA2” value was 6.68.

B4: [desHis^1, Leu^4, hCys^9(SO3^-), Phe^25, Leu^27]Glucagon-NH2 (peptide)
peptide: SQLTFTSXYSKYLDSRRAQDFVQFLLNT
HELM: PEPTIDE1{S.Q.L.T.F.T.S.[O=C([C@H](CCS(=O)(=O)O)N[*:1])[*:2]].Y.S.K.Y.L.D.S.R.R.A.Q.D.F.V.Q.F.L.L.N.T.[am]}$$$$V2.0; N-terminus assumed
SMILES: CC(C)C[C@H](NC(=O)[C@H](Cc1ccc(O)cc1)NC(=O)[C@H](CCCCN)NC(=O)[C@H](CO)NC(=O)[C@H](Cc1ccc(O)cc1)NC(=O)[C@H](CCS(=O)(=O)O)NC(=O)[C@H](CO)NC(=O)[C@@H](NC(=O)[C@H](Cc1ccccc1)NC(=O)[C@@H](NC(=O)[C@H](CC(C)C)NC(=O)[C@H](CCC(N)=O)NC(=O)[C@@H](N)CO)[C@@H](C)O)[C@@H](C)O)C(=O)N[C@@H](CC(=O)O)C(=O)N[C@@H](CO)C(=O)N[C@@H](CCCNC(=N)N)C(=O)N[C@@H](CCCNC(=N)N)C(=O)N[C@@H](C)C(=O)N[C@@H](CCC(N)=O)C(=O)N[C@@H](CC(=O)O)C(=O)N[C@@H](Cc1ccccc1)C(=O)N[C@H](C(=O)N[C@@H](CCC(N)=O)C(=O)N[C@@H](Cc1ccccc1)C(=O)N[C@@H](CC(C)C)C(=O)N[C@@H](CC(C)C)C(=O)N[C@@H](CC(N)=O)C(=O)N[C@H](C(N)=O)[C@@H](C)O)C(C)C
B4: in test [4], the “cAMP Induction EC50” value was 1610 nM and the “cAMP Inhibition IC50” value amounted to 4460 nM.
Take C(PEG 3.4 kDa)FTSEYSKYLDSRRAQDFVQWLMNT-NH2 (also: dimer: two chains joined by 3.4 kDa PEG at Cys5) [3.4kDaPEG-dimer[C5, E9]Glucagon(aa5-29)-NH2]: in test [2], the “IC50(nM) (cAMP, inhibit 0.2 mM Glucagon)” value stood at 1340 nM. The same molecule registered an IC50 in test [3] of 435 nM.

B5: [hGlu^9]Glucagon(aa6-29)-NH2 (peptide)
peptide: FTSXYSKYLDSRRAQDFVQWLMNT
HELM: PEPTIDE1{F.T.S.[O=C(O)CCC[C@H](N[*:1])C(=O)[*:2]].Y.S.K.Y.L.D.S.R.R.A.Q.D.F.V.Q.W.L.M.N.T.[am]}$$$$V2.0; N-terminus assumed
SMILES: CSCC[C@H](NC(=O)[C@H](CC(C)C)NC(=O)[C@H](Cc1c[nH]c2ccccc12)NC(=O)[C@H](CCC(N)=O)NC(=O)[C@@H](NC(=O)[C@H](Cc1ccccc1)NC(=O)[C@H](CC(=O)O)NC(=O)[C@H](CCC(N)=O)NC(=O)[C@H](C)NC(=O)[C@H](CCCNC(=N)N)NC(=O)[C@H](CCCNC(=N)N)NC(=O)[C@H](CO)NC(=O)[C@H](CC(=O)O)NC(=O)[C@H](CC(C)C)NC(=O)[C@H](Cc1ccc(O)cc1)NC(=O)[C@H](CCCCN)NC(=O)[C@H](CO)NC(=O)[C@H](Cc1ccc(O)cc1)NC(=O)[C@H](CCCC(=O)O)NC(=O)[C@H](CO)NC(=O)[C@@H](NC(=O)[C@@H](N)Cc1ccccc1)[C@@H](C)O)C(C)C)C(=O)N[C@@H](CC(N)=O)C(=O)N[C@H](C(N)=O)[C@@H](C)O
notes: also called [hE^9]Glucagon(aa6-29)-NH2; peptide no
For the molecule B5, in test [6], the “cAMP IC50” value amounted to 472 nM and the “cAMP pA2” value amounted to 6.27. This molecule registered an IC50 in test [7] of 163 nM. In test [1], this molecule came in with an IC50 of 163 nM. In test [8], the “cAMP (I/A)50” value worked out at 2360 and the “cAMP pA2” value worked out at 6.27.
For C(PEG 20 kDa)FTSEYSKYLDSRRAQDFVQWLMNT-NH2 [[C5(20kDaPEG), E9]Glucagon(aa5-29)-NH2], the “IC50(nM) (cAMP, inhibit 0.2 mM Glucagon)” value in test [2] turned out to be 976 nM. Also, in test [3], the IC50 stood at 331 nM.
